B1: H1C-16E3: GSE, SEQ ID NO:111, antisense; FYN gene (nucleic acid, listed as Homo sapiens)
antisense: TTTCTCGCTTGTATTCCTGAAGATGAGTTTGGCCCTGTGACTCTGAAGGGTCGGCTATTAACTGAGACATCCTCTGTCGGGTTGCCCCCCGTGTTATATTTCGCCATGAGGGACTTTACATCTGCCTTTCCATCCTACAAACATAGGGAACAAAAAATAGCTGAGAGACA
B2: H1C-23G2: GSE, SEQ ID NO:113, antisense; human CTSB gene (nucleic acid, listed as Homo sapiens)
antisense: GCCGGTGGCTCACATGGCCTGTCTGCACTGTAACCACAGGCTGGGATGTAGCCAGGACTTGGTCTCCTTGGAAGACAGGTCTGATGTTTGGCCAATCCAGTCCTTCAGACCCTGTCTGAAACTTGTA
B3: CF-320: GSE, SEQ ID NO:27, sense; double-strand break DNA repair gene (nucleic acid, listed as Homo sapiens)
sense: GCCTGCACATGACGATATGGATGAGGATGATAATGTATCAATGGGTGGGCCTGATAGTCCTGATTCAGTGGATCCCGT
B4: H1C-37E11: GSE, SEQ ID NO:115, antisense; human cathepsin L gene (nucleic acid, listed as Homo sapiens)
antisense: GTCGACCTTCCTCTTTACCGTCCACCAGCTCACACAGTGGGGTAGCTGGCTGCTGAGGCAATTCCACAATGGTTTCTCT
B5: H1C-6G5: GSE, SEQ ID NO:117, antisense; human glutaredoxin gene (nucleic acid, listed as Homo sapiens)
antisense: TTTAAAGGGACAGCTTCGAAGACATTTCCATCTGGTATACTTCACTAGTTAGCAATGCCCAGGAATGC
B6: CF-322: GSE, SEQ ID NO:31, sense; anti-proliferative factor (BTG-1) gene (nucleic acid, listed as Homo sapiens)
sense: CGACAGCTGCAGACCTTCAGCCAGAGCCTGCAGGAGCTGCTGGCAGAACATTATAAACATCACTGGTTCCCAGAAAA
B7: CF-335: GSE, SEQ ID NO:35, antisense; protein phosphatase 2A gene (nucleic acid, listed as Homo sapiens)
antisense: GGTAAGGGTAGGGCACTTTTAATTTAAATGACTTCTTGCACCATCTTGCCTAATGGACTAGATTGGACTGTATCAACATTGATTTACTC
modifications: chemistry not fully specified
notes: protein phosphatase 2A gene
B8: CF-42: GSE, SEQ ID NO:37, sense; squalene synthetase gene (nucleic acid, listed as Homo sapiens)
sense: TGGCTGGGACCTTTAGGAAAGTGAAATGCAGGTGAGAAGAACCTAAACATGAAAGGAAAGGGTGCCTCATCCCAGCAACCTGTCCTTGTGGGTGATGATCACTGTGCTGCTTGTGGCTCAT
modifications: chemistry not fully specified
notes: squalene synthetase gene
B9: CF-50: GSE, SEQ ID NO:39, sense; squalene synthetase gene (nucleic acid, listed as Homo sapiens)
sense: AAGTGAAATGCAGGTGAGAAGAACCTAAACATGAAAGGAAAGGGTGCCTCATCCCAGCAACCTGTCCTTGTGGGTGATGATCACTGTGCTGCTTGTGGCTCATGGCAGAGCATTCAGTGCCAA
modifications: chemistry not fully specified
notes: squalene synthetase gene
B10: CF-527: GSE, SEQ ID NO:41; eukaryotic release factor 1 gene; acts through a peptide (nucleic acid, listed as Homo sapiens)
DNA: CGTTTAAGAATGGAAAAGCGACATAACTATGTTCGGAAAGTAGCAGAGACTGCTGTGCAGCTGTTTATTTCTGGGGACAAAGTGAATGTGGCTGGTCTAGTTTTAGCTGGATCCGCTC
modifications: chemistry not fully specified
notes: eukaryotic release factor 1 gene; acts through a peptide
B11: CF-684: GSE, SEQ ID NO:91, sense; human tumorous imaginal disc protein gene (nucleic acid, listed as Homo sapiens)
sense: AATCATTGTTTTTTCCTTTGTAAATGTTGATTCAGAAAAGGAAAGCACAGGCTAAGCAGTTGAAGGTTCCCCACCATTCAGTGAGAGCAG

Each molecule was assayed on HIV-1IIIB (assay: Selection of GSEs from HeLa cell library using productive infection of CEM-ss cells).
Assay type: cell-based
Procedure: Additionally, a normalized RFE library made from HeLa cells was transferred into CEM-ss cells and the neo resistant population was infected with TCID50 of 3000/10^6 cells of HIV-1IIIB. This RFE library was represented by 50×10^6 independent recombinant clones. Four and seven days after infection, a purified anti-CD4 monoclonal antibody, L77 (available from Becton Dickinson), was added at 5 Φg/mL to prevent syncytia formation. Syncytia formation is thought to be prevented by blocking the interaction between gp120 expressed on the surface of an infected cell and CD4 on the surface of an uninfected cell. […] At 10-12 days after infection, CD4^+, p24^− cell population representing uninfected cells were sorted. Genomic DNA from the CD4^+, p24^− cells was purified and used for PCR amplification of inserts with the vector-derived primers. The amplified mixture was digested with EcoRI and BamHI and cloned back into the retroviral vector. The selection was repeated for additional rounds.
The selection of GSEs from HeLa cell library using productive infection of CEM-ss cells isolated […] additional nucleic acid molecules which have substantial sequence identity with other cellular genes.
The selection of GSEs from a HeLa cell library using productive infection of CEM-ss cells isolated 21 additional nucleic acid molecules which have substantial sequence identity with other cellular genes. […] The complement of SEQ ID NO:25 is represented by SEQ ID NO:26. […] The complement of SEQ ID NO:27 is represented by SEQ ID NO:28. […] The complement of SEQ ID NO:29 is represented by SEQ ID NO:30. […] The complement of SEQ ID NO:31 is represented by SEQ ID NO:32. […] The complement of SEQ ID NO:33 is represented by SEQ ID NO:34. […] The complement of SEQ ID NO:35 is represented by SEQ ID NO:36. […] The complement of SEQ ID NO:37 is represented by SEQ ID NO:38. […] The complement of SEQ ID NO:39 is represented by SEQ ID NO:40. […] The complement of SEQ ID NO:41 is represented by SEQ ID NO:42. […] The complement of SEQ ID NO:43 is represented by SEQ ID NO:44. […] The complement of SEQ ID NO:45 is represented by SEQ ID NO:46. […] The complement of SEQ ID NO:47 is represented by SEQ ID NO:48. […] The complement of SEQ ID NO:49 is represented by SEQ ID NO:50. […] The complement of SEQ ID NO:51 is represented by SEQ ID NO:52. […] The complement of SEQ ID NO:53 is represented by SEQ ID NO:54. […] The complement of SEQ ID NO:55 is represented by SEQ ID NO:56. […] The complement of SEQ ID NO:57 is represented by SEQ ID NO:58. […] The complement of SEQ ID NO:59 is represented by SEQ ID NO:60. […] The complement of SEQ ID NO:61 is represented by SEQ ID NO:62. […] The complement of SEQ ID NO:77 is represented by SEQ ID NO:78. […] The complement of SEQ ID NO:87 is represented by SEQ ID NO:88. […] The complement of SEQ ID NO:99 is represented by SEQ ID NO:100. […] The complement of SEQ ID NO:101 is represented by SEQ ID NO:102. […] The complement of SEQ ID NO:103 is represented by SEQ ID NO:104. […] The complement of SEQ ID NO:105 is represented by SEQ ID NO: 106. […] The complement of SEQ ID NO:107 is represented by SEQ ID NO:108. […] The complement of SEQ ID NO:109 is represented by SEQ ID NO:110. […] The complement of SEQ ID NO:111 is represented by SEQ ID NO:112. […] The complement of SEQ ID NO:113 is represented by SEQ ID NO:114. […] The complement of SEQ ID NO:115 is represented by SEQ ID NO:116. […] The complement of SEQ ID NO:117 is represented by SEQ ID NO:118.
In the case of B1, the “HIV-suppressive activity of the GSE and active orientation” value (from here on “HIV-suppressive activity”) is reported as “interferes with HIV replication as an antisense molecule”.
In the case of B2, the “HIV-suppressive activity” value is reported as “interferes with HIV replication as an antisense molecule”.
For B3, the “HIV-suppressive activity” value was “interferes with HIV infection in the sense orientation”.
B4 was tested, and the “HIV-suppressive activity” value was “interferes with HIV replication as an antisense molecule”.
B5 was tested, and the “HIV-suppressive activity” value was “interferes with HIV replication as an antisense molecule”.
In the case of B6, the “HIV-suppressive activity” value is reported as “interferes with HIV replication in the sense orientation”.
B7 was tested, and the “HIV-suppressive activity” value was “interferes with HIV replication as an antisense molecule”.
For B8, the “HIV-suppressive activity” value was “interferes with HIV replication in the sense orientation”.
With B9 the “HIV-suppressive activity” value was “exhibits its HIV-suppressive activities in the sense orientation”.
B10 was tested, and the “HIV-suppressive activity” value was “a peptide from which interferes with HIV replication”.

What follows are molecules tested on HIV (assay: Selection of GSEs from PBMC library using CEM-ss cells).
Assay type: cell-based
Procedure: A cell-derived random fragment library (RFL) was constructed using cDNA from peripheral blood mononuclear cells (PBMC). Four buffy coats were obtained from four healthy blood donors and PBMCs were purified by Ficoll gradient centrifugation followed by stimulation with PHA (1 μg/mL). Cells were removed at 5, 10, and 24 hours after the addition of PHA and total RNA was isolated by Trizol extraction. All time points from all donors were then pooled. Polyadenylated mRNA was purified from the total RNA by passages through an oligo-dT column. cDNA was synthesized from the polyadenylated RNA with random primers using the Gibco Superscript Choice system for cDNA Synthesis (Gibco BRL, Rockville, Md.). The cDNA was normalized using the PCR-Select cDNA Subtraction kit (Clontech, Palo Alto, Calif.) based on the suppression subtractive hybridization methods of Diatchenko et al. (1996, Proc. Natl. Acad. Sci. USA 93, 6025-6030, 1996). The primers used for the normalization were: […]
The normalized random fragments were digested with XhoI and Sse83871, purified on quick spin columns (available from Qiagen, Valencia, Calif.) and ligated into the SseI/XhoI site of a bicistronic retroviral vector, EMCVNgfrMPBIN. This vector was based on LXSNgfr as described in Dunn el al. (1999, Gene Therapy 6:130-137). Modifications included substitution of the Moloney murine leukemia virus LTR with the hybrid LTR described by Baum et al., 1995, (J. Virol. 69:7541-7547) and replacement of the SV40 promoter with encephalomyocarditis virus (EMCV) internal ribosomal entry site isolated from the plasmid, pCITE (available from Amersham, Arlington Heights, Ill.). The ligation mix was then transformed into competent cells. The total plasmid was purified from approximately 50 million clones.
The PBMC library was screened using the methods described above in Section 1F. A total of 14 GSEs were isolated using CEM-ss cells. […] The complement of SEQ ID NO:69 is represented by SEQ ID NO:70. CF-675 (SEQ ID NO:71) is another GSE that has substantial sequence identity with a gene encoding human translationally controlled tumor protein 1 (GenBank Accession No. HUMCH13C4A). The complement of SEQ ID NO:71 is represented by SEQ ID NO:72. CF-679 (SEQ ID NO:83) is another GSE that has substantial sequence identity with a gene encoding human translationally controlled tumor protein 1 (GenBank Accession No. HUMCH13C4A). The complement of SEQ ID NO:83 is represented by SEQ ID NO:84. […] The complement of SEQ ID NO:75 is represented by SEQ ID NO:76. […] The complement of SEQ ID NO:79 is represented by SEQ ID NO:80. […] The complement of SEQ ID NO:67 is represented by SEQ ID NO:68. […] The complement of SEQ ID NO:63 is represented by SEQ ID NO:64. CF-675 (SEQ ID NO:65) is another GSE that has substantial sequence identity with a gene encoding alpha enolase protein. The complement of SEQ ID NO:65 is represented by SEQ ID NO:66. […] The complement of SEQ ID NO:73 is represented by SEQ ID NO:74. […] The complement of SEQ ID NO:81 is represented by SEQ ID NO:82. […] The complement of SEQ ID NO:85 is represented by SEQ ID NO:86. […] The complement of SEQ ID NO:89 is represented by SEQ ID NO:90. […] The complement of SEQ ID NO:91 is represented by SEQ ID NO:92. […] The complement of SEQ ID NO:93 is represented by SEQ ID NO:94. Another member of the cluster is CF-686 (SEQ ID NO:95), also having substantial sequence identity with a gene encoding cell surface heparin binding protein (Liu et al., ibid.). The complement of SEQ ID NO:95 is represented by SEQ ID NO:96.
For “CF-693: GSE, SEQ ID NO:75, sense; NEF interacting protein gene (sense GATTCTCAGCTGGTAGCTGGTGTTGCATTCAAGAAGACTTTCTCTTACGCTGGGTT; listed as Homo sapiens)”, the “HIV-suppressive activity” value was “interferes with HIV replication in a sense orientation”.
For B11, the “HIV-suppressive activity” value was “interferes with HIV replication in a sense orientation”.

Reference: US6613506B1, “Compositions and methods for inhibiting human immunodeficiency virus infection by down-regulating human cellular genes” (Subsidiary No. 3, Inc., priority 2000, dated 2003)
